Experimental data: patent publication US20110251255

Biological target: recombinant cofilin (His-tagged fusion protein of human cofilin), P23528
Sequence (P23528 whole entry, the tested form may be a part): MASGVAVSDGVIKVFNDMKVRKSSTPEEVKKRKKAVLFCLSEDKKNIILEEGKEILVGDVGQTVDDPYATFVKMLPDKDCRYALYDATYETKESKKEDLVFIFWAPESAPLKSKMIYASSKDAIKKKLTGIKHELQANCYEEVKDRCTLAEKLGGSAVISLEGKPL

B1: LIM kinase 1 (protein)
chain: MRLTLLCCTWREERMGEEGSELPVCASCGQRIYDGQYLQALNADWHADCFRCCDCSASLSHQYYEKDGQLFCKKDYWARYGESCHGCSEQITKGLVMVAGELKYHPECFICLTCGTFIGDGDTYTLVEHSKLYCGHCYYQTVVTPVIEQILPDSPGSHLPHTVTLVSIPASSHGKRGLSVSIDPPHGPPGCGTEHSHTVRVQGVDPGCMSPDVKNSIHVGDRILEINGTPIRNVPLDEIDLLIQETSRLLQLTLEHDPHDTLGHGLGPETSPLSSPAYTPSGEAGSSARQKPVLRSCSIDRSPGAGSLGSPASQRKDLGRSESLRVVCRPHRIFRPSDLIHGEVLGKGCFGQAIKVTHRETGEVMVMKELIRFDEETQRTFLKEVKVMRCLEHPNVLKFIGVLYKDKRLNFITEYIKGGTLRGIIKSMDSQYPWSQRVSFAKDIASGMAYLHSMNIIHRDLNSHNCLVRENKNVVVADFGLARLMVDEKTQPEGLRSLKKPDRKKRYTVVGNPYWMAPEMINGRSYDEKVDVFSFGIVLCEIIGRVNADPDYLPRTMDFGLNVRGFLDRYCPPNCPPSFFPITVRCCDLDPEKRPSFVKLEHWLETLRMHLAGHLPLGPQLEQLDRGFWETYRRGESGLPAHPEVPD
- in vitro phosphorylation of recombinant cofilin (immune complex kinase assay, autoradiography): immunoprecipitated LIMK1 (FIG. 2, a and b) from PC3 cells was capable of phosphorylating recombinant cofilin (FIG. 2c)
